This experiment concerns the target I-A^b (MHCII) of murine bone marrow-derived dendritic cells from C57BL/6J mice (mouse) (UniProt P14434). The experiment in a line: MHCII peptidomics: Y3P IP of peptide-MHCII from BMDCs exposed to live Listeria, iTRAQ LC-MS/MS. As to conditions: scale: log2 fold change, Listeria 6 hr versus 10 min.

Substance “Listeria peptide mNRVmLPLQQmGAKMHGK (lmo1923 (aroE))” returned a logFC of 0.145.

For the origin of these results see US20220293215A1.
